# In JP2023550785A (dated 2023):
# T1: MERS-CoV (London1/2012) prefusion-stabilized spike (S) protein / S ectodomain trimer (MERS-CoV (London1/2012), UniProt K9N5Q8 18-1296)
# T1 sequence: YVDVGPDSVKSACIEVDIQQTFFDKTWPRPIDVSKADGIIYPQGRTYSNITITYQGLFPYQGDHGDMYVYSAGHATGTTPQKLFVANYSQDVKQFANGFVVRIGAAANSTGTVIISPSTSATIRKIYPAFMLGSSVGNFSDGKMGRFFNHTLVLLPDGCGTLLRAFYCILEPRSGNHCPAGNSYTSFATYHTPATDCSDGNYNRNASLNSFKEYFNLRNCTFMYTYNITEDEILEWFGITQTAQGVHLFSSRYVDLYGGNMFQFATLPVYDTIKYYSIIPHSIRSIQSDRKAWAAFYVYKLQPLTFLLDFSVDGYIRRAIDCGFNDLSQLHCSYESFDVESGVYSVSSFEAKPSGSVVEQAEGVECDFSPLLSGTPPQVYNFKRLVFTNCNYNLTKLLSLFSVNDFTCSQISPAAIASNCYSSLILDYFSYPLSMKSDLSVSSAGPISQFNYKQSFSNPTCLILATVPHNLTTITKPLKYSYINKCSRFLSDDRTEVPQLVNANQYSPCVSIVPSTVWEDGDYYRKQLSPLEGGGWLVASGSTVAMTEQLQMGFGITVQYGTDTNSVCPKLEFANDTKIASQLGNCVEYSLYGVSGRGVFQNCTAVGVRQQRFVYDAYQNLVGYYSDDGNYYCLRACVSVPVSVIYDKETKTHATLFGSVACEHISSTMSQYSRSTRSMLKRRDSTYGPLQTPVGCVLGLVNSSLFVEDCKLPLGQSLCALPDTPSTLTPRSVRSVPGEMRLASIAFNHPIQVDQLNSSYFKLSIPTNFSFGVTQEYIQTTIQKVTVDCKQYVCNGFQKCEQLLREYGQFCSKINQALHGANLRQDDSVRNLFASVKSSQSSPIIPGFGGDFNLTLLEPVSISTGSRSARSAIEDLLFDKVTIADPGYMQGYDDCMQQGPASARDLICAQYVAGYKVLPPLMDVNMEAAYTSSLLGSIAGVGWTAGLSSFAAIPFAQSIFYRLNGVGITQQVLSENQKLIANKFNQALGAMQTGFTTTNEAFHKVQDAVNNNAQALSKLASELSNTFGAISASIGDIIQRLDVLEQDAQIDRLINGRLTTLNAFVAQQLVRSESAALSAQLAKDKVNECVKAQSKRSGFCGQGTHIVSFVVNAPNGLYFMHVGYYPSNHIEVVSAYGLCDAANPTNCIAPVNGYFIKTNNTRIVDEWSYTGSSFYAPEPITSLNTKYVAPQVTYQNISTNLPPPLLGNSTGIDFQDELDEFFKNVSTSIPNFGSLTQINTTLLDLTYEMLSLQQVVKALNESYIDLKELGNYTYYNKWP
# B1: antibody S2P6 (antibody 420 1 1), human monoclonal antibody expressed as recombinant human IgG1 (antibody, V domains shown)
# VH: EVQLVQSGAEVKKPGASVKVSCKASGYTFTSQYMHWVRQAPGQGLEWIGIINPSGVHTSYAQKFQGRVTLTRDTSTSTLYMELSSLRSEDTAVYYCARGSPKGAFDYWGQGTLVTVSS
# VL: not shown
# Target: T1, MERS-CoV (London1/2012) …
binder,measurement,value
B1,Kd,1.14 nM
